In article PMC6608616 (IUCrJ, 2019):

B1: Tryptophan synthase β subunit (TrpB) from Francisella tularensis (enzyme)
chain: MSKLNAYFGEYGGQFVPQILVPALDQLEQEFIKAQADESFKQEFKELLQEYAGRPTALTKTRNIVKNTRTKLYLKREDLLHGGAHKTNQVLGQALLAKRMGKKEIIAETGAGQHGVATALACALLDLKCRVYMGAKDVERQSPNVFRMKLMGAEVIPVHSGSATLKDACNEALRDWSANYSKAHYLLGTAAGPHPFPTIVREFQRMIGEETKQQMLAKEGRLPDAVIACVGGGSNAIGMFADFIDEKNVKLIGVEPAGKGIETGEHGAPLKHGKTGIFFGMKAPLMQNSDGQIEESYSISAGLDFPSVGPQHAHLLAIGRAKYASATDDEALDAFKLLCKKEGIIPALESSHALAHALKLAYEDPNKEQLLVVNLSGRGDKDIFTVHDILKEKGEI
notes: also called FtTrpB; β subunit of FtTrpAB

How the values were obtained:
crystal structure = target: the molecule itself; test: crystal structure
[1] = target: B1; test: crystal structure; details: both partners purified

Does B1 bind (crystal structure)?
Result: binds

B2: Tryptophan synthase α subunit (TrpA) from Francisella tularensis (enzyme)
chain: SNAMTNRYTTLFANLEKRNEGAFIPFVTIGDPNKALSFEIIDTLVSSGADALELGIPFSDPLADGPTIQEANIRALESGITPKDCFDILTKIRAKYPHIPIGLLLYANLVYANGIENFYQKCLDAGVDSILIADVPAHESKEFRDIAKKVGIAQIFIAPPDASESTLKQISELGSGYTYLLSRVGVTGTETAANMPVEDVLTKLREYNAPKPVLGFGISKPEQVQQAIKAGAAGAISGSATVKIIQNNISNKQKMLNELTYFVKEMKAATLN
notes: also called FtTrpA; α subunit of FtTrpAB
Does B2 bind [1]?
Result: binds
